Results as given in PMC3413289 (Science signaling, 2012).

B1: coiled-coil PlexinA1_(cyto) fusion with the 1-residue linker (other)
chain: VKQLEDKVEELLSKNAHLENEVARLKKLVGSRDADRTLKRLQLQMDNLESRVALECKEAFAELQTDIHELTSDLDGAGIPFLDYRTYAMRVLFPGIEDHPVLKEMEVQANVEKSLTLFGQLLTKKHFLLTFIRTLEAQRSFSMRDRGNVASLIMTALQGEMEYATGVLKQLLSDLIEKNLESKNHPKLLLRRTESVAEKMLTNWFTFLLYKFLKECAGEPLFMLYCAIKQQMEKGPIDAITGEARYSLSEDKLIRQQIDYKTLTLNCVNPEHENAPEVPVKGLNCDTVTQVKEKLLDAVYKGVPYSQRPKAGDMDLEWRQGRMARIILQDEDVTTKIDNDWKRLNTLAHYQVTDGSSVALVPKQTSAYNISNSSTFTKSLSRYESMLRTASSPDSLRSRTPMITPDLESGTKLWHLVKNHDHLDQREGDRGSKMVSEIYLTRLLATKGTLQKFVDDLFETIFSTAHRGSALPLAIKYMFDFLDEQADKHQIHDSDVRHTWKSNCLPLRFWVNVIKNPQFVFDIHKNSITDACLSVVAQTFMDSCSTSEHKLGKDSPSNKLLYAKDIPNYKSWVERYYADIAKMPAISDQDMSAYLAEQSRLHLSQFNSMSALHEIYSYIAKYKDEILVALEKDEQARRQRLRSKLEQVVDTMALSS
B2: CC-L4-PlexinA1_(cyto) (other)
chain: VKQLEDKVEELLSKNAHLENEVARLKKLVGSSGSRDADRTLKRLQLQMDNLESRVALECKEAFAELQTDIHELTSDLDGAGIPFLDYRTYAMRVLFPGIEDHPVLKEMEVQANVEKSLTLFGQLLTKKHFLLTFIRTLEAQRSFSMRDRGNVASLIMTALQGEMEYATGVLKQLLSDLIEKNLESKNHPKLLLRRTESVAEKMLTNWFTFLLYKFLKECAGEPLFMLYCAIKQQMEKGPIDAITGEARYSLSEDKLIRQQIDYKTLTLNCVNPEHENAPEVPVKGLNCDTVTQVKEKLLDAVYKGVPYSQRPKAGDMDLEWRQGRMARIILQDEDVTTKIDNDWKRLNTLAHYQVTDGSSVALVPKQTSAYNISNSSTFTKSLSRYESMLRTASSPDSLRSRTPMITPDLESGTKLWHLVKNHDHLDQREGDRGSKMVSEIYLTRLLATKGTLQKFVDDLFETIFSTAHRGSALPLAIKYMFDFLDEQADKHQIHDSDVRHTWKSNCLPLRFWVNVIKNPQFVFDIHKNSITDACLSVVAQTFMDSCSTSEHKLGKDSPSNKLLYAKDIPNYKSWVERYYADIAKMPAISDQDMSAYLAEQSRLHLSQFNSMSALHEIYSYIAKYKDEILVALEKDEQARRQRLRSKLEQVVDTMALSS
B3: coiled-coil PlexinA1_(cyto) fusion with the 7-residue linker (other)
chain: VKQLEDKVEELLSKNAHLENEVARLKKLVGSSGSSGSRDADRTLKRLQLQMDNLESRVALECKEAFAELQTDIHELTSDLDGAGIPFLDYRTYAMRVLFPGIEDHPVLKEMEVQANVEKSLTLFGQLLTKKHFLLTFIRTLEAQRSFSMRDRGNVASLIMTALQGEMEYATGVLKQLLSDLIEKNLESKNHPKLLLRRTESVAEKMLTNWFTFLLYKFLKECAGEPLFMLYCAIKQQMEKGPIDAITGEARYSLSEDKLIRQQIDYKTLTLNCVNPEHENAPEVPVKGLNCDTVTQVKEKLLDAVYKGVPYSQRPKAGDMDLEWRQGRMARIILQDEDVTTKIDNDWKRLNTLAHYQVTDGSSVALVPKQTSAYNISNSSTFTKSLSRYESMLRTASSPDSLRSRTPMITPDLESGTKLWHLVKNHDHLDQREGDRGSKMVSEIYLTRLLATKGTLQKFVDDLFETIFSTAHRGSALPLAIKYMFDFLDEQADKHQIHDSDVRHTWKSNCLPLRFWVNVIKNPQFVFDIHKNSITDACLSVVAQTFMDSCSTSEHKLGKDSPSNKLLYAKDIPNYKSWVERYYADIAKMPAISDQDMSAYLAEQSRLHLSQFNSMSALHEIYSYIAKYKDEILVALEKDEQARRQRLRSKLEQVVDTMALSS

Molecular target: the molecule itself
Experiment: SEC

| Protein | binding result |
| --- | --- |
| B1 | binds |
| B2 | binds |
| B3 | binds |
